{"source": "the RNAGym collection of RNA variant scans (doi:10.1093/nar/gkz1192)", "parents": {"B1": {"name": "CPEB3 Ribozyme (parent)", "chain": "UAACAGGGGGCCACAGCAGAAGCGUUCACGUCGCAGCCCCUGUCAGAUUCUGGUGAAUCUGCGAAUUCUGCUGUAUAUCUC"}}}
{"variants_of": "B1", "experiment": "self-cleavage, relative activity (ratio to wild type); higher = more cleavage; in vitro, sequencing", "in_short": "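Libraries of CPEB3 self-cleaving ribozyme mutants came from rounds of error-prone PCR and carried barcodes, which DNA sequencing matched to variants. In vitro transcription used T7 RNA polymerase at 37°C for 5 hours, with a further 15 min in DNase I before EDTA stopped the reaction; the ribozymes cleaved during both steps. The RNA was reverse transcribed with template switching and sequenced on Illumina. Relative activity is the cleaved/total read fraction of a variant divided by that of the unmutated ribozyme, averaged over three batches with at least 5 reads.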"}
{"variant": "UAACAGGGGGCCACAGCAGAGGCGUUCAUGUCGCAGCCCCUGUCAGAUUCUGGUGAAUCUGCGAAUUCUGCUGUAUAUCUC", "note": "[A21G C29U]", "self-cleavage": 0.28}
{"variant": "UAACAGGGGGCCACAGCAGAGGCGUUCACGUCGCAGCCCCUGUCAGAUUCUGGUGAAUUUGCGAAUUCUGCUGUAUAUCUC", "note": "[A21G C59U]", "self-cleavage": 0.38}
{"variant": "UAACAGGGGGCCACAGCAGAGGCGUUCACGUCGCAGCCCCUGUCAGAUUCUGGUGAAUAUGCGAAUUCUGCUGUAUAUCUC", "note": "[A21G C59A]", "self-cleavage": 0.31}
{"variant": "UAACAGGGGGCCACAGCAGAGGCGUUUACGUCGCAGCCCCUGUCAGAUUCUGGUGAAUCUGCGAAUUCUGCUGUAUAUCUC", "note": "[A21G C27U]", "self-cleavage": 0.18}
{"variant": "UAACAGGGGGCCACAGCAGAGGCGUUAACGUCGCAGCCCCUGUCAGAUUCUGGUGAAUCUGCGAAUUCUGCUGUAUAUCUC", "note": "[A21G C27A]", "self-cleavage": 0.14}
{"variant": "UAACAGGGGGCCACAGCAGAGGCGUUCACGUCGCAGCCCAUGUCAGAUUCUGGUGAAUCUGCGAAUUCUGCUGUAUAUCUC", "note": "[A21G C40A]", "self-cleavage": 0.26}
{"variant": "UAACAGGGGGCCACAGCAGAGGCGUUCACGUCGCAGCCCUUGUCAGAUUCUGGUGAAUCUGCGAAUUCUGCUGUAUAUCUC", "note": "[A21G C40U]", "self-cleavage": 0.46}
{"variant": "UAACAGGGGGCCACAGCAGAGGCGUUCACGUCGGAGCCCCUGUCAGAUUCUGGUGAAUCUGCGAAUUCUGCUGUAUAUCUC", "note": "[A21G C34G]", "self-cleavage": 0.2}
{"variant": "UAACAGGGGGCCACAGCAGAGGCGUUCACGUCGCAGACCCUGUCAGAUUCUGGUGAAUCUGCGAAUUCUGCUGUAUAUCUC", "note": "[A21G C37A]", "self-cleavage": 0.42}
{"variant": "UAACAGGGGGCCACAGCAGAGGCGUUCACGUCGCAGGCCCUGUCAGAUUCUGGUGAAUCUGCGAAUUCUGCUGUAUAUCUC", "note": "[A21G C37G]", "self-cleavage": 0.19}
{"variant": "UAACAGGGGGCCACAGCAGAGGCGUUCACGUCGCAGUCCCUGUCAGAUUCUGGUGAAUCUGCGAAUUCUGCUGUAUAUCUC", "note": "[A21G C37U]", "self-cleavage": 0.39}
{"variant": "UAACAGGGGGCCACAGCAGAGGCGUUCACGUCGCAGCCCCUGUCAGAUUCUGGUGAAUCUGCGAAUUAUGCUGUAUAUCUC", "note": "[A21G C68A]", "self-cleavage": 0.17}
{"variant": "UAACAGGGGGCCACAGCAGAGGAGUUCACGUCGCAGCCCCUGUCAGAUUCUGGUGAAUCUGCGAAUUCUGCUGUAUAUCUC", "note": "[A21G C23A]", "self-cleavage": 0.32}
{"variant": "UAACAGGGGGCCACAGCAGAGGGGUUCACGUCGCAGCCCCUGUCAGAUUCUGGUGAAUCUGCGAAUUCUGCUGUAUAUCUC", "note": "[A21G C23G]", "self-cleavage": 0.37}
{"variant": "UAACAGGGGGCCACAGCAGAGGUGUUCACGUCGCAGCCCCUGUCAGAUUCUGGUGAAUCUGCGAAUUCUGCUGUAUAUCUC", "note": "[A21G C23U]", "self-cleavage": 0.2}
{"variant": "UAACAGGGGGCCACAGCAGAGGCGUUCACGUAGCAGCCCCUGUCAGAUUCUGGUGAAUCUGCGAAUUCUGCUGUAUAUCUC", "note": "[A21G C32A]", "self-cleavage": 0.23}
{"variant": "UAACAGGGGGCCACAGCAGAGGCGUUCACGUGGCAGCCCCUGUCAGAUUCUGGUGAAUCUGCGAAUUCUGCUGUAUAUCUC", "note": "[A21G C32G]", "self-cleavage": 0.23}
{"variant": "UAACAGGGGGCCACAGCAGAGGCGUUCACGUUGCAGCCCCUGUCAGAUUCUGGUGAAUCUGCGAAUUCUGCUGUAUAUCUC", "note": "[A21G C32U]", "self-cleavage": 0.22}
{"variant": "UAACAGGGGGCCACAGCAGAGGCGUUCACGUCGCAGCCCCUGUAAGAUUCUGGUGAAUCUGCGAAUUCUGCUGUAUAUCUC", "note": "[A21G C44A]", "self-cleavage": 0.18}
{"variant": "UAACAGGGGGCCACAGCAGAGGCGUUCACGUCGCAGCCCCUGUUAGAUUCUGGUGAAUCUGCGAAUUCUGCUGUAUAUCUC", "note": "[A21G C44U]", "self-cleavage": 0.26}
{"variant": "UAACAGGGGGCCACAGCAGAGGCGUUCACGUCGCAGCGCCUGUCAGAUUCUGGUGAAUCUGCGAAUUCUGCUGUAUAUCUC", "note": "[A21G C38G]", "self-cleavage": 0.26}
{"variant": "UAACAGGGGGCCACAGCAGAGGCGUUCACGUCGCAGCACCUGUCAGAUUCUGGUGAAUCUGCGAAUUCUGCUGUAUAUCUC", "note": "[A21G C38A]", "self-cleavage": 0.33}
{"variant": "UAACAGGGGGCCACAGCAGAGGCGUUCACGUCGCAGCUCCUGUCAGAUUCUGGUGAAUCUGCGAAUUCUGCUGUAUAUCUC", "note": "[A21G C38U]", "self-cleavage": 0.57}
{"variant": "UAACAGGGGGCCACAGCAGAGGCGUUCACGUCGCAGCCCCUGUCAGAUUCUGGUGAAUCUGGGAAUUCUGCUGUAUAUCUC", "note": "[A21G C62G]", "self-cleavage": 0.22}
{"variant": "UAACAGGGGGCCACAGCAGAGGCGUUCACGUCGCAGCCCCUGUCAGAUUCUGGUGAAUCUGUGAAUUCUGCUGUAUAUCUC", "note": "[A21G C62U]", "self-cleavage": 0.19}
{"variant": "UAACAGGGGGCCACAGCAGAGGCGUUCACGUCGCAGCCCCUGUCAGAUUCUGGUGAAUCUGAGAAUUCUGCUGUAUAUCUC", "note": "[A21G C62A]", "self-cleavage": 0.2}
{"variant": "UAACAGGGGGCCACAGCAGAGGCGUUCACGUCGCAGCCCCUGUCAGAUUAUGGUGAAUCUGCGAAUUCUGCUGUAUAUCUC", "note": "[A21G C50A]", "self-cleavage": 0.57}
{"variant": "UAACAGGGGGCCACAGCAGAGGCGUUCACGUCGCAGCCCCUGUCAGAUUUUGGUGAAUCUGCGAAUUCUGCUGUAUAUCUC", "note": "[A21G C50U]", "self-cleavage": 0.62}
{"variant": "UAACAGGGGGCCACAGCAGAGGCGUUCACGUCGCAGCCUCUGUCAGAUUCUGGUGAAUCUGCGAAUUCUGCUGUAUAUCUC", "note": "[A21G C39U]", "self-cleavage": 0.3}
{"variant": "UAACAGGGGGCCACAGCAGAGGCGUUCACGUCGCAGCCACUGUCAGAUUCUGGUGAAUCUGCGAAUUCUGCUGUAUAUCUC", "note": "[A21G C39A]", "self-cleavage": 0.1}
{"variant": "UAACAGGGGGCCACAGCAGAGGCGUUCACGUCGCAGCCGCUGUCAGAUUCUGGUGAAUCUGCGAAUUCUGCUGUAUAUCUC", "note": "[A21G C39G]", "self-cleavage": 0.37}
{"variant": "UAACAGGGGGCCACAGCAGAGGCGUUCACGUCGCAGCCCCUGUCAGAUUCUGGUGAAUCUGCGAAUUCUGCUGUAUUUCUC", "note": "[A21G A77U]", "self-cleavage": 0.71}
{"variant": "UAACAGGGGGCCACAGCAGAGGCGUUCACGUCGCAGCCCCUGUCAGAUUCUGGUGAAUCUGCGAAUUCUGCUGUAUCUCUC", "note": "[A21G A77C]", "self-cleavage": 0.63}
{"variant": "UAACAGGGGGCCACAGCAGAGGCGUUCACGUCGCAGCCCCUGUCAGAUUCUGGUGAAUCUGCGAAUUCUGCUGUAUGUCUC", "note": "[A21G A77G]", "self-cleavage": 0.66}
